# Results published in article PMC11132685.
# Legend:
# Assay in all cases: SEC-MALS; purified NACHOs; oligomeric state; conditions not given
# [1] = biological target: tetrabrachion-stabilised recombinant N2 NA (NACHO) of A/PARIS/2379/2014 (not stated | influenza A virus (H3N2) A/PARIS/2379/2014)
# [2] = biological target: tetrabrachion-stabilised recombinant N2 NA (NACHO) of A/HATAY/4990/2016 (not stated | influenza A virus (H3N2) A/HATAY/4990/2016)
# [3] = biological target: tetrabrachion-stabilised recombinant N2 NA (NACHO) of A/BRISBANE/273/2016 (not stated | influenza A virus (H3N2) A/BRISBANE/273/2016)
# [4] = biological target: tetrabrachion-stabilised recombinant N2 NA (NACHO) of A/STOCKHOLM/14/2012 (not stated | influenza A virus (H3N2) A/STOCKHOLM/14/2012)
# [5] = biological target: tetrabrachion-stabilised recombinant N2 NA (NACHO) of A/ANKARA/2396/2015 (not stated | influenza A virus (H3N2) A/ANKARA/2396/2015)
# [6] = biological target: tetrabrachion-stabilised recombinant N2 NA (NACHO) of A/SINGAPORE/INFIMH160019/2016 (not stated | influenza A virus (H3N2) A/SINGAPORE/INFIMH160019/2016)
# [7] = biological target: tetrabrachion-stabilised recombinant N2 NA (NACHO) of A/TEXAS/50/2012 (not stated | influenza A virus (H3N2) A/TEXAS/50/2012)
# [8] = biological target: tetrabrachion-stabilised recombinant N2 NA (NACHO) of A/CATALONIA/9503S/2017 (not stated | influenza A virus (H3N2) A/CATALONIA/9503S/2017)
# [9] = biological target: tetrabrachion-stabilised recombinant N2 NA (NACHO) of A/VICTORIA/361/2011 (not stated | influenza A virus (H3N2) A/VICTORIA/361/2011)
# [10] = biological target: tetrabrachion-stabilised recombinant N2 NA (NACHO) of A/HONGKONG/4801/2014 (not stated | influenza A virus (H3N2) A/HONGKONG/4801/2014)
substance,measurement,setting,value
tetrabrachion-stabilised recombinant N2 NA (NACHO) of A/PARIS/2379/2014 (enzyme),stoichiometry N,[1],4
tetrabrachion-stabilised recombinant N2 NA (NACHO) of A/HATAY/4990/2016 (enzyme),stoichiometry N,[2],4
tetrabrachion-stabilised recombinant N2 NA (NACHO) of A/BRISBANE/273/2016 (enzyme),stoichiometry N,[3],4
tetrabrachion-stabilised recombinant N2 NA (NACHO) of A/STOCKHOLM/14/2012 (enzyme),stoichiometry N,[4],4
tetrabrachion-stabilised recombinant N2 NA (NACHO) of A/ANKARA/2396/2015 (enzyme),stoichiometry N,[5],4
tetrabrachion-stabilised recombinant N2 NA (NACHO) of A/SINGAPORE/INFIMH160019/2016 (enzyme),stoichiometry N,[6],4
tetrabrachion-stabilised recombinant N2 NA (NACHO) of A/TEXAS/50/2012 (enzyme),stoichiometry N,[7],4
tetrabrachion-stabilised recombinant N2 NA (NACHO) of A/CATALONIA/9503S/2017 (enzyme),stoichiometry N,[8],4
tetrabrachion-stabilised recombinant N2 NA (NACHO) of A/VICTORIA/361/2011 (enzyme),stoichiometry N,[9],4
tetrabrachion-stabilised recombinant N2 NA (NACHO) of A/HONGKONG/4801/2014 (enzyme),stoichiometry N,[10],4
